{"source": "paper PMC2854129", "about": "“Spadin, a Sortilin-Derived Peptide, Targeting Rodent TREK-1 Channels: A New Concept in the Antidepressant Drug Design” (PLoS Biology, 2010)", "molecules": {"B1": {"name": "propeptide N-terminal fragment Gln1-Arg16 1-16 (peptide)", "chain": "QDRLDAPPPPAAPLPR"}, "B2": {"name": "spadin (peptide)", "chain": "APLPRWSGPIGVSWGLR"}}, "key": {"TREK-1 [1]": {"biological_target": "T1, TREK-1 (Mus musculus, UniProt P97438)", "T1 sequence (P97438 1-426)": "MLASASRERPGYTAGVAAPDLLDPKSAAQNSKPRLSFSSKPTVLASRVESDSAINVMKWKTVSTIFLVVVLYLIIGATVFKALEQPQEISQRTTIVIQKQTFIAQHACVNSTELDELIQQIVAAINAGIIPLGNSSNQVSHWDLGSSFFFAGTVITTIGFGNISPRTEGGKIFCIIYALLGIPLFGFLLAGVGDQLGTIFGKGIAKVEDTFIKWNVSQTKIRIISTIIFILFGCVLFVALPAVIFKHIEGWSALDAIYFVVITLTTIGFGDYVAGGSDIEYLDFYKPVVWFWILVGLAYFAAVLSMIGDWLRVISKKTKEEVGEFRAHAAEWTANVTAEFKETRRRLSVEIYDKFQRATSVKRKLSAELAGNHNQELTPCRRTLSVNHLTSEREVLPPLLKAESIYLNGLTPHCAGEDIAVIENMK", "assay": "Whole-cell patch-clamp, TREK-1 transfected COS-7 cells", "format": "cell-based", "parameters": "GFP; expressed in transfected cells; host or cells: COS-7 cells, DEAE-dextran transfection", "details": "10 µM aa", "procedure": "All electrophysiological experiments were done on COS-7 cells seeded at a density of 20,000 cells/35-mm dish 24 h before transfection. Cells were transfected by the classical DEAE-dextran method with TREK-1-GFP plasmids (0.1 µg/µL). Cells were visualized 48–72 h after transfection using fluorescence.\nThe whole-cell patch-clamp technique was used to evaluate TREK-1 potassium channel current by using a RK 400 patch-clamp amplifier (Axon Instruments, USA), as previously described. Currents were lowpass filtered at 3 kHz, digitized at 10 kHz using a 12-bit analog-to-digital converter. […] The bath solution contained (in mM) 150 NaCl, 5 KCl, 3 MgCl2, 1 CaCl2, and 10 HEPES, adjusted to pH 7.4 with NaOH; the patch pipette solution contained (in mM) 155 KCl, 3 MgCl2, 5 EGTA, and 10 HEPES, adjusted to pH 7.2 with KOH. Cells were clamped at −80 mV and voltage changes were either applied by ramp (from −100 to 50 mV, 1 s in duration) or by step (from −100 to 40 mV, 1.5 s in duration). Cells were continuously superfused with a microperfusion system. The pipette capacitance was not subtracted from total membrane capacitance and there was no leak subtraction. […]\nPclamp software was used to analyze currents recorded in the whole-cell mode measured at 0 mV. Results are expressed as means ± SD. […]"}, "TREK-1 [2]": {"tested_on": "TREK-1", "assay": "Whole-cell patch-clamp, cultured hippocampal pyramidal neurons", "format": "cell-based, mouse", "details": "10 µM aa, K+ blockers, 7 out of 70 recorded neurons, at −50 mV", "procedure": "Cortical neurons were prepared from 14 old mouse embryos, whereas hippocampal neurons were prepared from newborn mice. Briefly, dissected brain areas were dissociated and neurons were plated on polylysine-treated 35 or 60 mm dishes and maintained in culture in Neurobasal medium supplemented with B27, Glutamax, and antibiotics for 2 to 3 wk before to be used for electrophysiological or biochemical experiments.\nSupplementary file pbio.1000355.s004.tif: Figure S4 Effects of spadin on cultured pyramidal neurons from hippocampus. (A) Cultured pyramidal neuron from hippocampus, with on top, the patch-clamp pipette. Neurons were chosen according to their morphology. (B) Current recorded in response to ramps of potential obtained in the various conditions indicated (aa, arachidonic acid: 10 µM; Spadin: 1 µM; Fluoxetine: 20 µM). Neurons were recorded in the whole-cell configuration of the patch-clamp technique. In voltage-clamp, ramps of potential from −90 mV to 70 mV were applied every 10 s. The % variation of the current amplitude was always measured at −50 mV. The currents were recorded in response to such ramps in control conditions and in the presence of a cocktail of potassium blockers suitable to isolate the TREK currents (10 mM tetraethyl ammonium (TEA), 3 mM 4-aminopyridine (4-AP), 50 nM charybdotoxin, 10 µM glibenclamide, 100 nM apamin). […] The blocks were reversible. (C) Time course of spadin and fluoxetine effects. Applications are indicated by the horizontal bars. (2.03 MB TIF) Click here for additional data file."}, "TREK-1 channel": {"tested_on": "TREK-1 channel", "assay": "Whole-cell patch-clamp, hippocampal CA3 pyramidal neurons in brain slices, wild-type mice", "format": "cell-based, mouse", "details": "12 out of 28 recorded neurons; K+ blockers; aa 10 µM; mean ± SEM, n = 12"}, "TREK-1 [3]": {"biological_target": "T1, TREK-1", "assay": "Competition binding, 125I-spadin, TREK-1 transfected COS-7 cell homogenates", "parameters": "expressed in transfected cells; host or cells: COS-7 cells, DEAE-dextran transfection", "details": "0.2 nM 125I-spadin; TREK-1 transfected COS-7 homogenates; Tris-HCl pH 7.4, 0.1% BSA; mean of duplicates from 2 to 5 independent experiments", "procedure": "For competition experiments, homogenates from TREK-1 transfected COS-7 or C13NJ cells were incubated with 0.2 nM ^125I-spadin or ^125I-NT (200,000 cpm in 250 µl) iodinated and purified as previously described. Incubations were performed in 50 mM Tris-HCl, pH 7.4 containing 0.1% BSA in the presence of increasing concentrations of non-radioactive spadin or NT (10^−10 to 10^−5M). Incubations were terminated by addition of 2 ml of ice-cold binding buffer followed by filtration through cellulose acetate filters (Sartorius, Göttingen, Germany) and washing twice with 2 ml of ice-cold buffer. Radioactivity on filters was counted with a gamma-counter."}, "TREK-1 [4]": {"biological_target": "T1, TREK-1", "assay": "Association kinetics and internalization of 125I-spadin on whole COS-7 cells expressing TREK-1", "format": "cell-based", "parameters": "expressed in transfected cells; host or cells: COS-7 cells, DEAE-dextran transfection", "details": "37°C; for intracellular (acid-NaCl wash resistant) fraction of total bound 125I-spadin: 30 min, acid-NaCl wash 2 min", "procedure": "Cells, grown on 12 mm multiwell-dishes, were incubated with 0.2 nM ^125I-spadin for various times at 37°C in an Earle's Tris-Hepes buffer (cell binding buffer). Incubations were terminated by washing cells twice with the binding buffer or with the same buffer containing 0.5 M NaCl, pH 4, for 2 min to remove non-sequestrated radioactivity (acid-NaCl wash). Cells were harvested with 1 ml of 0.1 N NaOH and counted in a gamma-counter. Non-specific binding was determined in the presence of 10 µM unlabeled spadin."}, "[5]": {"tested_on": "non-transfected COS-7 cells", "assay": "125I-spadin binding to non-transfected COS-7 cells"}, "[6]": {"biological_target": "TREK-1 channel (KCNK2), transfected in COS-7 cells (mouse) (UniProt P97438)"}, "NTSR3/Sortilin": {"biological_target": "NTSR3/Sortilin (UniProt Q99523)", "sequence (Q99523 78-755)": "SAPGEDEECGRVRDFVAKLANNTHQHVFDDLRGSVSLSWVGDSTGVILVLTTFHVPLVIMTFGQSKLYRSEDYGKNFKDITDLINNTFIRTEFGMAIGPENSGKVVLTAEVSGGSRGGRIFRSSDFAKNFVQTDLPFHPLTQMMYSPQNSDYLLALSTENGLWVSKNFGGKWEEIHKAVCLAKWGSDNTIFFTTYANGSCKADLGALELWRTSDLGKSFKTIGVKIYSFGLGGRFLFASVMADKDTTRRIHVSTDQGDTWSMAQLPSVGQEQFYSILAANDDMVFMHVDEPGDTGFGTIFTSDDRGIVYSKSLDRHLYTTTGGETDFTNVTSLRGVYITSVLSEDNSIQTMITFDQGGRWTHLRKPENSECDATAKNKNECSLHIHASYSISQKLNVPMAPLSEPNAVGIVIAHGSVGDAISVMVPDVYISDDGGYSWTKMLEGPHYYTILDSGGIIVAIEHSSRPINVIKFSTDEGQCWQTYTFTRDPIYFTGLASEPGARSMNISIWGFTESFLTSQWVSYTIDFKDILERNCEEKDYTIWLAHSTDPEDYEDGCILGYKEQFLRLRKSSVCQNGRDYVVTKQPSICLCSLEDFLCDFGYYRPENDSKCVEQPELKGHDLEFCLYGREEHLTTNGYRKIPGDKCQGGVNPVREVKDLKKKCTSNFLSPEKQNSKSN", "details": "cited from earlier work"}, "TREK-1 [7]": {"biological_target": "T2, TREK-1 (Mus musculus, UniProt P97438)", "T2 chain": "T1 sequence (P97438 1-426)", "assay": "radioligand competition"}, "TREK-1 [8]": {"biological_target": "T2, TREK-1", "assay": "radioligand binding"}}, "note": "Where no end group is shown, it is not given here. The star is where a group is joined. 125I = radioactive iodine label on Tyr, [125I]*", "data": [{"molecule": "CCCCC/C=C\\C/C=C\\C/C=C\\C/C=C\\CCCC(=O)O", "note": "[arachidonic acid]", "values": [{"measurement": "activation of TREK-1 basal channel activity", "setting": "TREK-1 [1]; as previously described [21]", "result": "strongly and reversibly activated"}, {"measurement": "increase of remaining current by arachidonic acid", "setting": "TREK-1 [2]", "result": "about 50%"}, {"measurement": "increase in amplitude of remaining current by arachidonic acid", "setting": "TREK-1 channel", "result": "23.3%±4.8%"}]}, {"molecule": "QDRLDAPPPPAAPLPR [Gln1-Arg16, N-terminal fragment of the full length propeptide]", "values": [{"measurement": "effect on aa-induced current increase", "setting": "TREK-1 [1]; after 90 s of application, Figure S2", "result": "unable to inhibit the current increase"}, {"measurement": "affinity for TREK-1", "setting": "TREK-1 [3]", "result": 1, "unit": "µM"}]}, {"molecule": "^125I-spadin: monoiodinated spadin (on Tyr0), HPLC purified (Y(125I)APLPRWSGPIGVSWGLR)", "values": [{"measurement": "time to plateau of cell-associated radioactivity", "setting": "TREK-1 [4]; 0.2 nM 125I-spadin, whole COS-7 cells expressing TREK-1", "result": "≤ 30", "unit": "min"}, {"measurement": "intracellular (acid-NaCl wash resistant) fraction of total bound 125I-spadin", "setting": "TREK-1 [4]", "result": 80, "unit": "%"}, {"measurement": "intracellular (acid-NaCl wash resistant) fraction of total bound 125I-spadin", "setting": "TREK-1 [4]; listed as 125I-labelled spadin", "result": "about 80%"}, {"measurement": "125I-spadin binding", "setting": "[5]", "result": "totally devoid of ^125I-Spadin binding"}]}, {"molecule": "full length propeptide of NTSR3/Sortilin (Gln1-Arg44)", "values": [{"measurement": "block of the arachidonic acid-stimulated TREK-1 current at 0 mV, whole-cell patch clamp, TREK-1 transfected COS-7 cells, 500 nM propeptide", "setting": "[6]", "result": 41, "unit": "%"}]}, {"molecule": "sortilin propeptide 1-44 (from UniProt Q99523)", "values": [{"measurement": "Kd", "setting": "NTSR3/Sortilin", "result": 5, "unit": "nM"}]}, {"molecule": "B1", "values": [{"measurement": "Kd", "setting": "TREK-1 [7]", "result": 1000, "unit": "nM"}]}, {"molecule": "B2", "values": [{"measurement": "Kd", "setting": "TREK-1 [8]", "result": "~10", "unit": "nM"}]}]}
